# Measurements taken from patent publication US20230265151A1, “GIP/GLP1 CO-AGONIST COMPOUNDS” (priority 2020, published 2023).
# Positions count from the first letter of the chain named. *1 amine or outer side, *2 acyl side, *3 side chain or, on linkers, in order; H or OH if unused. Where no end group is shown, it is not given here. Side-chain parts run from the residue outwards. [ ]: non-standard residue; d: D form. The star is where a group is joined. αMePhe(2-F) = C[C@](N)(Cc1ccccc1F)C(=O)O; γGlu = O=C(O)[C@H](CCC(=O)[*:2])N[*:1]; C14 diacid = O=C(O)CCCCCCCCCCCCC(=O)*; εLys = N[C@@H](CCCCN[*:1])C(=O)[*:2]; αMeY = C[C@](N)(Cc1ccc(O)cc1)C(=O)O; αMeF = C[C@](N)(Cc1ccccc1)C(=O)O; αMeL = CC(C)C[C@](C)(N)C(=O)O; Orn = NCCC[C@H](N)C(=O)O; AEEA = NCCOCCOCC(=O)O; Aib = CC(C)(N)C(=O)O
# T1: human glucose-dependent insulinotropic polypeptide (GIP) receptor (human, UniProt P48546 22-466)
# T1 sequence (looked up): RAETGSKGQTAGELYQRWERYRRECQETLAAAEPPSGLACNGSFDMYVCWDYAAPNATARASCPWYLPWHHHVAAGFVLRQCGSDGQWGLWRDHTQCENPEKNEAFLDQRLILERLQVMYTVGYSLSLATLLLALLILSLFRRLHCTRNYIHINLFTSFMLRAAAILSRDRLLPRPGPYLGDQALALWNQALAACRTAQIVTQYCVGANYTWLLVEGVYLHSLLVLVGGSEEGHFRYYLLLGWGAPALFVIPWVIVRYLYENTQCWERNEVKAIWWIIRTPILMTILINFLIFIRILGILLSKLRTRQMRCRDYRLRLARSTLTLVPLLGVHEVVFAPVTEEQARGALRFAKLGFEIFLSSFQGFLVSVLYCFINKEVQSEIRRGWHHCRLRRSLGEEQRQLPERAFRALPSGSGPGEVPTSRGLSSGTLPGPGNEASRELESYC
# B1: Example 169 (peptide)
# peptide: YXEGTXTSDXSIXLDXKAQXEFIXXLIEGGKSSGAPPPS
# modifications: Aib2, αMeF(2F)6, 4Pal10, αMeL13, Orn16, K17(Z), aMeF20, D-Glu24, αMeY25, K31(Z), C-terminal NH2; Z = AEEA2-(γ-Glu)-CO-(CH2)12-CO2H
# B2: Example 191 (peptide)
# peptide: B1 peptide with K17I, E21K, X24K, K31P
# modifications: Aib2, αMeF(2F)6, 4Pal10, αMeL13, Orn16, Aib20, K21(Z), K24(Z), αMeY25, C-terminal NH2; Z = AEEA2-CO-(CH2)12-CO2H
# B3: Example 195 (peptide)
# peptide: B1 peptide with K17I, E21K
# modifications: not fully specified; Aib2, αMeF(2F)6, 4Pal10, αMeL13, Orn16, Aib20, K21(AEEA2-CO-(CH2)12-CO2H), D-Glu24, αMeY25, K31(AEEA2-CO-(CH2)2-CO2H as printed), C-terminal NH2
# B4: Example 174 (peptide)
# peptide: B1 peptide with F22X
# modifications: Aib2, αMeF6, 4Pal10, αMeL13, Orn16, K17(Z), Aib20, αMeF22, D-Glu24, αMeF25, K31(Z), C-terminal NH2; Z = AEEA2-(γ-Glu)-CO-(CH2)10-CH3
# B5: Example 172 (peptide)
# peptide: B1 peptide
# modifications: Aib2, αMeF6, 4Pal10, αMeL13, Orn16, K17(Z), Aib20, D-Glu24, αMeY25, K31(Z), C-terminal NH2; Z = AEEA2-(γ-Glu)-CO-(CH2)10-CH3
# B6: Example 173 (peptide)
# peptide: B1 peptide with F22X
# modifications: Aib2, αMeF6, 4Pal10, αMeL13, Orn16, K17(Z), Aib20, αMeF22, D-Glu24, αMeY25, K31(Z), C-terminal NH2; Z = AEEA2-(γ-Glu)-CO-(CH2)10-CH3
# B7: Example 171 (peptide)
# peptide: B1 peptide
# modifications: Aib2, αMeF(2F)6, 4Pal10, αMeL13, Orn16, K17(Z), Ac6c20, D-Glu24, αMeY25, K31(Z), C-terminal NH2; Z = AEEA2-(γ-Glu)-CO-(CH2)12-CO2H
# B8: Example 181 (peptide)
# peptide: B1 peptide with X10V, X24K, K31P
# modifications: Aib2, αMeF6, αMeL13, Orn16, K17(Z), Aib20, K24(Z), αMeY25, C-terminal NH2; Z = AEEA2-(γ-Glu)-CO-(CH2)12-CO2H
# B9: Example 179 (peptide)
# peptide: B1 peptide with X10V
# modifications: Aib2, αMeF6, αMeL13, Orn16, K17(Z), Aib20, D-Glu24, αMeY25, K31(Z), C-terminal NH2; Z = AEEA2-(γ-Glu)-CO-(CH2)12-CO2H
# B10: Example 170 (peptide)
# peptide: B1 peptide
# modifications: Aib2, αMeF(2F)6, 4Pal10, αMeL13, Orn16, K17(Z), Ac5c20, D-Glu24, αMeY25, K31(Z), C-terminal NH2; Z = AEEA2-(γ-Glu)-CO-(CH2)12-CO2H
# B11: Example 193 (peptide)
# peptide: B1 peptide with K17I, X24K
# modifications: Aib2, αMeF(2F)6, 4Pal10, αMeL13, Orn16, Aib20, K24(Z), αMeY25, K31(Z), C-terminal NH2; Z = AEEA2-CO-(CH2)12-CO2H
# B12: Example 192 (peptide)
# peptide: B1 peptide with K17I, X24K, E28K, K31P
# modifications: Aib2, αMeF(2F)6, 4Pal10, αMeL13, Orn16, Aib20, K24(Z), αMeY25, K28(Z), C-terminal NH2; Z = AEEA2-CO-(CH2)12-CO2H
# B13: Example 168 (peptide)
# peptide: Y[Aib]EGT[αMePhe(2-F)]TSDV[Aib]I[αMeL]LD[Orn]K([εLys-εLys-γGlu-C14 diacid])AQ[Aib]EFIK([εLys-εLys-γGlu-C14 diacid])[αMeY]LIEGGPSSGAPPPS-NH2
# B14: Example 194 (peptide)
# peptide: YXEGTXTSDXSIXLDXIAQXEFIKXLIEGGPSSGAPPPSK
# modifications: Aib2, αMeF(2F)6, 4Pal10, αMeL13, Orn16, Aib20, K24(Z), αMeY25, K40(Z), C-terminal NH2; Z = AEEA2-CO-(CH2)12-CO2H
# B15: Example 182 (peptide)
# peptide: Y[Aib]EGT[αMeF]TSDV[Aib]I[αMeL]LD[Orn]K([AEEA-AEEA-γGlu-C14 diacid])AQ[Aib]EFIK([AEEA-AEEA-γGlu-C14 diacid])[αMeY]LIEGGKSSGAPPPS-NH2
# modifications: not fully specified
# Molecular target: T1, human glucose-dependent insulinotropic …
# Test: cell-based or functional assay
Binder,cAMP EC50 [nM],cAMP Emax [%]
B1,0.0381,
B2,0.0601,90
B3,0.0219,88.5
B4,0.0284,92.2
B5,0.0149,
B6,0.0155,87.8
B7,0.0389,
B8,0.154,94.6
B9,0.15,91
B10,0.0244,
B11,0.0201,97.2
B12,0.0375,
B13,0.0482,93
B14,0.0233,93.1
B15,0.368,89

# Molecular target: human glucagon-like peptide-1 (GLP-1) receptor (human, UniProt P43220 24-463)
# Test: cell-based or functional assay
Binder,cAMP EC50 [nM],cAMP Emax [%]
B1,1.23,
B2,0.926,98.6
B3,0.343,
B4,0.33,98.2
B5,0.141,
B6,0.343,89.9
B7,1.7,
B8,0.182,
B9,0.461,99
B10,1.03,
B11,0.382,
B12,0.518,
B13,0.312,93.3
B14,0.317,103
B15,0.185,96.9

# Molecular target: human glucagon receptor (human, UniProt P47871 26-477)
# Test: cell-based or functional assay
row,Binder,cAMP EC50 [nM]
1,B1,> 9950
2,B2,> 9950
3,B3,> 9950
4,B4,> 9950
5,B5,> 9950
6,B6,> 9950
7,B7,> 9950
8,B8,> 9950
9,B9,> 9950
10,B10,> 9950
11,B11,> 9950
12,B12,> 9950
13,B13,> 9950
14,B14,> 9950
15,B15,> 9950
